Source: patent publication US20040110252A1, “Yeast-based assay” (priority 2000, published 2004)
Where two headings read alike, the source gives them in different places.

Legend:
[1] = tested on: Sz. pombe cells; details: cited from earlier work
[2] = tested on: S. cerevisiae cells; details: cited from earlier work
[3] = target: P-factor receptor (encoded by the mam2 gene) (Schizosaccharomyces pombe) (UniProt Q00619)

Substance | Sensitivity of cells to the toxin [1] | Sensitivity of cells to the toxin ([2]; S. cerevisiae spheroplasts (cell wall enzymatically removed)) | Sensitivity of cells to the toxin ([2]; intact S. cerevisiae cells) | colony formation of sxa2>ura4 reporter cells on plates lacking uracil with different concentrations of P-factor [3] [units/ml]
Diphtheria toxin | sensitive | sensitive | resistant | 
P-factor mating pheromone (peptide) |  |  |  | > 10
